Changes are numbered by the printed parent chain. One block for each binder: values may come before it.
Assays:
human CD63 [1] = target: T1, human CD63 (human, UniProt P08962 2-238); assay: ECL, NIH3T3/hCD63 cells
T1 construct: stably transfected in NIH3T3/hCD63; The cell line is named under assay; also called hCD63
T1 sequence: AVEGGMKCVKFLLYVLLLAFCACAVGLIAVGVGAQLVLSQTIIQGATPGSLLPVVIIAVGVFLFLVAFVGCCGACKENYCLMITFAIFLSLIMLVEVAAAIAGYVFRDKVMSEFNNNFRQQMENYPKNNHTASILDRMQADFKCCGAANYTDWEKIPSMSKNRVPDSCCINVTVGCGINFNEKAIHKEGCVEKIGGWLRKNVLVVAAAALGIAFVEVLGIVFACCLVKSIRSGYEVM
Outline: (§1)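 Detached cells (~2.0×10⁴/well: NIH3T3/hCD63, LNCAP, U87MG, or parental NIH3T3 as negative control) were plated on carbon-electrode plates and blocked with 2% BSA. Anti-CD63 or isotype antibodies (1.7 pM–100 nM, in duplicate) were bound 1 h at RT, then washed. Signal read as electrochemiluminescence.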

human CD63 [2] = target: T1, human CD63; assay: flow cytometry, HEK293 cells
Procedure: Relative cell surface binding of the anti-CD63 antibodies to human CD63 expressing cells was accessed via flow cytometry using CD63 positive HEK293 cells (ATCC, Cat #CRL-1573), which endogenously express human CD63, and CD63 negative HEK293/CD63 knock out cells. For the assay, cells were plated in PBS without calcium and magnesium (VWR, Cat #45000-446), containing 2% FBS (Saradigm Cat #1500-500) (Staining Buffer) in 96 well V-bottom plates (Axygen Scientific, Cat #P-96-450-V-C-S). Cells were then incubated with anti-CD63 antibodies or isotype control antibodies at concentrations ranging from 100 nM to 1.7 pM for 30 minutes on ice. Wells containing no antibody were used as controls. HEK293/CD63KO cells were stained with only the highest concentration (100 nM) of the antibodies. […] Cells were then washed and fixed using a 50% solution of Cytofix (BD Biosciences, Cat #554655) diluted in PBS. Samples were run on the Intellicyte Hypercyt flow cytometer and results were analyzed in ForeCyt software (Intellicyte) to calculate the mean fluorescent intensity (MFI). Measured values were analyzed using a four parameter logistic equation over a 12-point response curve using GraphPad Prism and the resulting EC₅₀ values are reported (Table 12). The signal to noise ratio (S/N) was determined by calculating the ratio of the anti-CD63 antibodies or the control antibodies MFI to the wells containing no antibodies (Table 12).

[3] = target: T2, recombinant human CD63 extracellular loop 2 expressed with a C-terminal human Fc tag (human); assay: SPR Biacore, mAb captured, 37C
T2 construct: also called hCD63 EC loop 2-hFc; human CD63 EC loop 2-Fc
Outline: (§2)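 Anti-CD63 mAbs captured on anti-mouse Fc or anti-human Fab surfaces; CD63 EC2 reagents flowed in HBS-ET, pH 7.4, at 25° C or 37° C. ka and kd from 1:1 binding model with mass transport limitation; KD and t½ calculated from kinetic rates.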

[4] = target: T3, recombinant human CD63 extracellular loop 2 expressed with a C-terminal Myc-Myc-hexahistidine (human); assay: SPR Biacore, mAb captured, 37C
T3 construct: also called hCD63 EC loop 2-MMH; human CD63 EC loop 2-MMH
Outline: as §2

[5] = target: T2, recombinant human CD63 extracellular …; assay: SPR Biacore, mAb captured, 25C
Outline: as §2

[6] = target: T3, recombinant human CD63 extracellular …; assay: SPR Biacore, mAb captured, 25C
Outline: as §2

human CD63 [7] = target: T1, human CD63; assay: ECL, U87MG cells
Outline: as §1

T3 sequence (chain, as listed by the source limits assumed): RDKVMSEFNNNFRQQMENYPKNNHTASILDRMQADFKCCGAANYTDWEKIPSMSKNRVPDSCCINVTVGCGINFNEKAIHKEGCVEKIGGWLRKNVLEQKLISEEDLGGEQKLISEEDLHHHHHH
T2 sequence (chain, as listed by the source limits assumed): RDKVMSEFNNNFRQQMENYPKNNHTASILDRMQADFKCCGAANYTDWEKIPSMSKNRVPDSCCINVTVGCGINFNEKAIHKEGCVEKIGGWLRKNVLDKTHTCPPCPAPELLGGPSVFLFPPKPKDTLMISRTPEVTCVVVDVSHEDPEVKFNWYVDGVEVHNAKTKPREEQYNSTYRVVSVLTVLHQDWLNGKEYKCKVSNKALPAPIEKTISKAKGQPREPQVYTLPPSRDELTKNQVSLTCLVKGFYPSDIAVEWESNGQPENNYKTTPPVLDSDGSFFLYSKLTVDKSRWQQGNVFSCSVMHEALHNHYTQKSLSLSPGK

EC50 (human CD63 [1]): 970 pM
binding ratio at 3.7 nM vs NIH3T3 (human CD63 [1]): 281 fold
EC50 (human CD63 [2]): 500 pM
S/N (MFI over no-antibody wells) (human CD63 [2]): 26.7
100 nM Ag Bound (RU) [3]: 138 RU
Kd [3]: 119 pM
koff [3]: 4.89e-05 s⁻¹
kon [3]: 411000 M⁻¹ s⁻¹
t1/2 [3]: 236 min
100 nM Ag Bound (RU) [4]: 58 RU
Kd [4]: 1150 pM
koff [4]: 0.000201 s⁻¹
kon [4]: 175000 M⁻¹ s⁻¹
t1/2 [4]: 57 min
100 nM Ag Bound (RU) [5]: 134 RU
Kd [5]: 150 pM
koff [5]: 4.66e-05 s⁻¹
kon [5]: 320000 M⁻¹ s⁻¹
t1/2 [5]: 248 min
100 nM Ag Bound (RU) [6]: 65 RU
Kd [6]: 1230 pM
koff [6]: 0.000279 s⁻¹
kon [6]: 227000 M⁻¹ s⁻¹
t1/2 [6]: 41 min
EC50 (human CD63 [7]): 1400 pM
binding ratio at 3.7 nM vs NIH3T3 (human CD63 [7]): 272 fold
B1: H2M12450N (antibody, V domains shown)
VH: QVQLQESGPKVVKPSETLSLTCTVSGGSISSYYWNWIRQSPGKGLEWIGYTKRGYTDYNPSLRSRVTISEDTSKNQFSLRISSVTAADTAVYYCAQMGWGSHAFDMWGQGTMVAVSS
VL: EIVLTQSPGTLSLSPGERATLSCRASQSVNSRYLAWYQQKPGQAPRLLIYGASSRATGIPDRCSGSGSGTDFTLTISRLEPEDFAVYYCQQYGSSPWTFGQGTKVEIK
notes: also called H2aM12450N; mAb12450

EC50 (human CD63 [1]): 570 pM
binding ratio at 3.7 nM vs NIH3T3 (human CD63 [1]): 91 fold
EC50 (human CD63 [2]): 1900 pM
S/N (MFI over no-antibody wells) (human CD63 [2]): 21
100 nM Ag Bound (RU) [3]: 123 RU
Kd [3]: 3380 pM
koff [3]: 0.00179 s⁻¹
kon [3]: 529000 M⁻¹ s⁻¹
t1/2 [3]: 6 min
100 nM Ag Bound (RU) [4]: 31 RU
Kd [4]: 56400 pM
koff [4]: 0.00932 s⁻¹
kon [4]: 165000 M⁻¹ s⁻¹
t1/2 [4]: 1 min
100 nM Ag Bound (RU) [5]: 117 RU
Kd [5]: 753 pM
koff [5]: 0.00051 s⁻¹
kon [5]: 677000 M⁻¹ s⁻¹
t1/2 [5]: 23 min
100 nM Ag Bound (RU) [6]: 42 RU
Kd [6]: 11000 pM
koff [6]: 0.00182 s⁻¹
kon [6]: 166000 M⁻¹ s⁻¹
t1/2 [6]: 6 min
EC50 (human CD63 [7]): 950 pM
binding ratio at 3.7 nM vs NIH3T3 (human CD63 [7]): 52 fold
B2: H2M12395N (antibody, V domains shown)
VH: QVQLQESGPRLVKPSETLSLTCIVSGGSISNFYWNWIRQSPGKGLEWIGYFFYTGTIDYNPSLKSRVTISLDTSKNQFSLNLRLLTAADAAVYYCARMGLGANAFDIWGHGTMVTVSS
VL: B1 VL with S28H, N30S, R32N, A52G, C63F, E82A, Y87F, S94N, I107M
notes: also called H2aM12395N

EC50 (human CD63 [1]): 290 pM
binding ratio at 3.7 nM vs NIH3T3 (human CD63 [1]): 256 fold
EC50 (human CD63 [2]): 1800 pM
S/N (MFI over no-antibody wells) (human CD63 [2]): 31.6
100 nM Ag Bound (RU) [3]: 118 RU
Kd [3]: 509 pM
koff [3]: 0.000331 s⁻¹
kon [3]: 651000 M⁻¹ s⁻¹
t1/2 [3]: 35 min
100 nM Ag Bound (RU) [4]: 44 RU
Kd [4]: 21400 pM
koff [4]: 0.0019 s⁻¹
kon [4]: 88900 M⁻¹ s⁻¹
t1/2 [4]: 6 min
100 nM Ag Bound (RU) [5]: 107 RU
Kd [5]: 704 pM
koff [5]: 8.4e-05 s⁻¹
kon [5]: 119000 M⁻¹ s⁻¹
t1/2 [5]: 138 min
100 nM Ag Bound (RU) [6]: 52 RU
Kd [6]: 5000 pM
koff [6]: 0.00043 s⁻¹
kon [6]: 85900 M⁻¹ s⁻¹
t1/2 [6]: 27 min
EC50 (human CD63 [7]): 790 pM
binding ratio at 3.7 nM vs NIH3T3 (human CD63 [7]): 171 fold
B3: H1M12451N (antibody, V domains shown)
VH: QVQLQESGPGLMKPSETLSLTCTVSGGSFSSYYWNWIRQSPGKGLEWIGYIRYSGDTNYKPSLKSRFTISIDTSKNLFSLRLKSVTAADTAVYYCARMGLGSDAFDIWGQGTMVTVSS
VL: B1 VL with S31N, R32N, A52V, S53F, S54N, G58N, C63F

Source: patent publication US20210079109A1 (Regeneron, published 2021)
